32 molecules from patent USRE47150 (Bayer, dated 2018) can be followed below.

Where a chain is given by its changes, count along the chain named. In names and notes the source's numbering stands.

Sequences and labels used below:
T1: mouse tissue factor pathway inhibitor (TFPI) (mouse, UniProt O54819 29-289, limits assumed)
T1 construct: bought; also called mTFPI; murine TFPI
T1 sequence (looked up): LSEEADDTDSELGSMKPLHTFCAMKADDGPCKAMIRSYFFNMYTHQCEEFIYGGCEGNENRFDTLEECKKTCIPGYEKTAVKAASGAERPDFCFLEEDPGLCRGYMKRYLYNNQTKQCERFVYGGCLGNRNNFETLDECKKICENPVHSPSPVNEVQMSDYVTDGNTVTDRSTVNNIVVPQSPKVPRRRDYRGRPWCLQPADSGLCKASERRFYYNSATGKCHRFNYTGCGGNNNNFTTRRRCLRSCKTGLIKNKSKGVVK

T2: human tissue factor pathway inhibitor (TFPI) (human, UniProt P10646 29-304, limits assumed)
T2 construct: bought; also called hTFPI; human TFPI
T2 sequence (looked up): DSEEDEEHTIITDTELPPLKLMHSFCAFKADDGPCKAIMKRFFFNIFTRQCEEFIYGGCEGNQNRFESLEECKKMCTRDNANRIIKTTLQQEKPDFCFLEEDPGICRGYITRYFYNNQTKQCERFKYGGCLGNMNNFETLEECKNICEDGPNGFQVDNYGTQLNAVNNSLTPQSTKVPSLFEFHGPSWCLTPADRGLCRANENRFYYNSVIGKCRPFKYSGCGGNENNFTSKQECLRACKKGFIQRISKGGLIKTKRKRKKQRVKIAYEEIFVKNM

B1: 4B7 HC_D62I (Fab, V domains shown)
VH: QVQLQQSGPGLVKPSQTLSLTCAISGDSVSSNSAAWSWIRQSPGRGLEWLGIIYKRSKWYNIYAVSVKSRITINPDTSKNQFSLQLNSVTPEDTAVYYCARWHSDKHWGFDYWGQGTLVTVSS
VL: DIVMTQSPLSLPVTPGEPASISCRSSQSLVFSDGNTYLNWYLQKPGQSPQLLIYKGSNRASGVPDRFSGSGSGTDFTLKISRVEAEDVGVYYCQQYDSYPLTFGQGTKVEIKR
B2: 4B7 HC_D62V (Fab, V domains shown)
VH: B1 VH with I62V
VL: B1 VL
B3: 4B7 LC_D33F (Fab, V domains shown)
VH: B1 VH with I62D
VL: B1 VL with D33F
B4: 4B7 HC_G109A LC_D33R (Fab, V domains shown)
VH: B1 VH with I62D, G109A
VL: B1 VL with D33R
B5: 4B7 HC_N61G HC_D62V (Fab, V domains shown)
VH: B1 VH with N61G, I62V
VL: B1 VL
B6: 4B7 HC_Y112D (Fab, V domains shown)
VH: B1 VH with I62D, Y112D
VL: B1 VL
B7: 4B7 HC_D62Q (Fab, V domains shown)
VH: B1 VH with I62Q
VL: B1 VL
B8: 4B7 HC_H103D (Fab, V domains shown)
VH: B1 VH with I62D, H103D
VL: B1 VL
B9: 4B7 HC_H103G (Fab, V domains shown)
VH: B1 VH with I62D, H103G
VL: B1 VL
B10: 4B7 HC_D62S (Fab, V domains shown)
VH: B1 VH with I62S
VL: B1 VL
B11: 4B7 HC_S57K (Fab, V domains shown)
VH: B1 VH with S57K, I62D
VL: B1 VL
B12: 4B7 HC_N32E (Fab, V domains shown)
VH: B1 VH with N32E, I62D
VL: B1 VL
B13: 4B7 HC_K58M HC_D62N (Fab, V domains shown)
VH: B1 VH with K58M, I62N
VL: B1 VL
B14: 4B7 LC_D33R (Fab, V domains shown)
VH: B1 VH with I62D
VL: B1 VL with D33R
B15: 4B7 HC_N32D (Fab, V domains shown)
VH: B1 VH with N32D, I62D
VL: B1 VL
B16: 4B7 HC_S33G (Fab, V domains shown)
VH: B1 VH with S33G, I62D
VL: B1 VL
B17: 4B7 HC_H107M (Fab, V domains shown)
VH: B1 VH with I62D, H107M
VL: B1 VL
B18: 4B7 HC_H107M LC_F31I (Fab, V domains shown)
VH: B1 VH with I62D, H107M
VL: B1 VL with F31I
B19: 4B7 LC_D33F LC_Y54F (Fab, V domains shown)
VH: B1 VH with I62D
VL: B1 VL with D33F, Y54F
B20: 4B7 HC_N61G (Fab, V domains shown)
VH: B1 VH with N61G, I62D
VL: B1 VL
B21: 4B7 HC_D62N (Fab, V domains shown)
VH: B1 VH with I62N
VL: B1 VL
B22: 4B7 HC_D62L (Fab, V domains shown)
VH: B1 VH with I62L
VL: B1 VL
B23: 4B7 HC_S30R HC_S57K (Fab, V domains shown)
VH: B1 VH with S30R, S57K, I62D
VL: B1 VL
B24: 4B7 HC_S57R (Fab, V domains shown)
VH: B1 VH with S57R, I62D
VL: B1 VL
B25: 2A8 HC S35D+S55R+K99L/LC D1S+I2Y+A13S+S21T+R28P+N29K+Y48F+N51V+E80M+S89A+D91W+D92S+G93S+V94T (Fab, V domains shown)
VH: QVQLVESGGGLVQPGGSLRLSCAASGFTFRSYGMDWVRQAPGKGLEWVSSIRGSRSSTYYADSVKGRFTISRDNSKNTLYLQMNSLRAEDTAVYYCARLYRYWFDYWGQGTLVTVSS
VL: SYELTQPPSVSVSPGQTARITCSGDNLPKYYAHWYQQKPGQAPVVVIFYDVNRPSGIPERFSGSNSGNTATLTISGTQAMDEADYYCQAWWSSTPVFGGGTKLTVLG
B26: 2A8 HC Q1E+S31V+S50A+I51D+S55R+S56G+K99V/LC D1S+I2Y+A13S+S21T+R28P+N29K+Y48F+E80M+D91L+D92S+V94T+V96W (Fab, V domains shown)
VH: B25 VH with Q1E, S31V, D35S, S50A, I51D, S56G, L99V
VL: B25 VL with V51N, A89S, W91L, S93G, V96W
B27: 2A8 HC Q1E+R30S+S35D+S55R+S56G+K99L/LC D1S+I2Y+A13S+S21T+R28P+Y48F+N51V+E80M+S89A+D91W+D92S+G93S+V94T (Fab, V domains shown)
VH: B25 VH with Q1E, R30S, S56G
VL: B25 VL with K29N
B28: 2A8 HC Q1E+R30S+S35D+S55R+S56G+K99L/LC D1S+I2Y+A13S+S21T+R28P+N29K+Y48F+N51V+E80M+D91W (Fab, V domains shown)
VH: B25 VH with Q1E, R30S, S56G
VL: B25 VL with A89S, S92D, S93G, T94V
B29: 2A8 HC Q1E+R30S+S35D+S55R+S56G+K99L/LC D1S+I2Y+A13S+S21T+R28P+Y48F+N51V+E80M+D91W (Fab, V domains shown)
VH: B25 VH with Q1E, R30S, S56G
VL: B25 VL with K29N, A89S, S92D, S93G, T94V
B30: 2A8 HC S31V+I51D+S55R+K99V/LC D1S+I2Y+A13S+S21T+R28P+N29K+Y48F+Y49R+N51S+E80M+D91L+D92S+V94T+V96W (Fab, V domains shown)
VH: B25 VH with S31V, D35S, I51D, L99V
VL: B25 VL with Y49R, V51S, A89S, W91L, S93G, V96W
B31: 2A8 HC S31V+I51D+S55R+K99V/LC D1S+I2Y+A13S+S21T+R28P+N29K+Y48F+E80M+D91L+D92S+V94T+V96W (Fab, V domains shown)
VH: B25 VH with S31V, D35S, I51D, L99V
VL: B25 VL with V51N, A89S, W91L, S93G, V96W
B32: 2A8 HC Q1E+S31V+S50A+I51D+S55R+S56G+K99V/LC D1S+I2Y+A13S+S21T+R28P+N29K+Y48F+N51S+E80M+D91L+D92S+V94T+V96W (Fab, V domains shown)
VH: B25 VH with Q1E, S31V, D35S, S50A, I51D, S56G, L99V
VL: B25 VL with V51S, A89S, W91L, S93G, V96W

The first experiment concerns the target T1, mouse tissue factor pathway inhibitor …. In words: equilibrium ELISA.
On to B1, for which the variant/wild-type worked out at 44.4 ratio.
On the same count and under the same terms, next, B2: 95 ratio; B3: 7 ratio.
On the same count and under the same terms, next, B4: 8 ratio.
Same read-out and setting: next, B5: 31.1 ratio; B6: 5.7 ratio; B7: 142 ratio.
B8 came in with a variant/wild-type of 12.9 ratio.
On the same count and under the same terms, next, B9: 10.7 ratio; B10: 146 ratio.
Turning to B11, the variant/wild-type came out at 6.5 ratio.
Molecule B12 gave a variant/wild-type of 2.1 ratio.
Still for that read-out and setting: next, B13: 15.2 ratio; B14: 7.2 ratio; B15: 6 ratio.
On the same count and under the same terms, under B16 stands 6.5 ratio.
The same measure, in the same setting: next, B17: 5.6 ratio.
In turn, B18 returned a variant/wild-type of 9.2 ratio.
The same measure, in the same setting: under B19 stands 7.9 ratio.
On the same count and under the same terms, under B20 stands 1.4 ratio; under B21, 146 ratio.
On the same count and under the same terms, next, B22: 22.9 ratio; B23: 6.6 ratio.

The target in another experiment is T2, human tissue factor pathway inhibitor …. The experiment is described as follows: competitive ELISA.
B1 displayed a variant/wild-type of 9.8 ratio.
B2: the variant/wild-type turned out to be 31.9 ratio.
B3: the variant/wild-type is 5.3 ratio.
With B4, the variant/wild-type stood at 3.8 ratio.
Still for that read-out and setting: next, B5: 8 ratio.
B6 showed a variant/wild-type of 2.9 ratio.
Same read-out and setting: under B7 stands 20.6 ratio.
Still for that read-out and setting: under B8 stands 2.4 ratio; under B9, 1.4 ratio; under B24, 2 ratio.
Same read-out and setting: under B10 stands 29.3 ratio; under B11, 1.7 ratio.
B12 displayed a variant/wild-type of 3.2 ratio.
On the same count and under the same terms, next, B13: 6.6 ratio; B14: 3.6 ratio.
Same read-out and setting: next, B15: 3.8 ratio; B16: 1.5 ratio; B17: 8.1 ratio.
On the same count and under the same terms, under B18 stands 1.7 ratio.
The molecule B19 came in with a variant/wild-type of 4.3 ratio.
On the same count and under the same terms, under B20 stands 2.2 ratio.
Still for that read-out and setting: under B21 stands 52.3 ratio.
Still for that read-out and setting: under B22 stands 6.8 ratio; under B23, 1.6 ratio.

Another experiment shares this target. The experiment is described as follows: competitive ELISA. This is another data set of the same source. (In general: ELISA stands for enzyme-linked immunosorbent assay.)
As to B25, the variant/HC_K99L is 21.4 ratio.
On the same count and under the same terms, next, B26: 9.8 ratio.
The same measure, in the same setting: under B27 stands 18.8 ratio; under B28, 19.8 ratio; under B29, 18.7 ratio.
On the same count and under the same terms, next, B30: 2.2 ratio; B31: 18 ratio; B32: 11.4 ratio.

The target in the next experiment is T1, mouse tissue factor pathway inhibitor …. The experiment is described as follows: competitive ELISA.
Take B25: the variant/HC_K99L stood at 16.8 ratio.
With B26, the variant/HC_K99L was found to be 5.9 ratio.
Still for that read-out and setting: under B27 stands 12.3 ratio; under B28, 15.5 ratio.
On the same count and under the same terms, next, B29: 15.1 ratio.
Still for that read-out and setting: next, B30: 2.4 ratio; B31: 15.4 ratio.
On to B32, for which the variant/HC_K99L was 7.1 ratio.
